Test results taken from the array DNA melting data of Ke et al..

assay: melting temperature; melt of duplexes; details: sodium 0.0675 M; strand 1 µM

Substance | Tm [°C]
CGACGTGCAACATGTGCTG+CAGCACATTACGCACGTCG ((((((((...((((((((+))))))))...)))))))) | 47.9
CGACGTGCAACATGTGCTG+CAGCACATTCTGCACGTCG (((((((((..((((((((+))))))))..))))))))) | 50.1
CGACGTGCAACATGTGCTG+CAGCACATTGCGCACGTCG ((((((((...((((((((+))))))))...)))))))) | 48.8
CGACGTGCAACATGTGCTG+CAGCACATTGGGCACGTCG ((((((((...((((((((+))))))))...)))))))) | 50.1
CGACGTGCAACATGTGCTG+CAGCACATTTCGCACGTCG ((((((((.(.((((((((+)))))))).).)))))))) | 49
CGACGTGCAAGATGTGCTG+CAGCACATAACGCACGTCG ((((((((...((((((((+))))))))...)))))))) | 48.6
CGACGTGCAAGATGTGCTG+CAGCACATAGTGCACGTCG (((((((((..((((((((+))))))))..))))))))) | 48.6
CGACGTGCAAGATGTGCTG+CAGCACATATGGCACGTCG ((((((((.(.((((((((+)))))))).).)))))))) | 53
CGACGTGCAAGATGTGCTG+CAGCACATCACGCACGTCG ((((((((..(((((((((+)))))))))..)))))))) | 53.8
CGACGTGCAAGATGTGCTG+CAGCACATCCGGCACGTCG ((((((((..(((((((((+)))))))))..)))))))) | 54.9
CGACGTGCAAGATGTGCTG+CAGCACATCCTGCACGTCG (((((((((.(((((((((+))))))))).))))))))) | 56.5
CGACGTGCAAGATGTGCTG+CAGCACATCGAGCACGTCG ((((((((..(((((((((+)))))))))..)))))))) | 57.9
CGACGTGCAAGATGTGCTG+CAGCACATCGGGCACGTCG ((((((((..(((((((((+)))))))))..)))))))) | 57
CGACGTGCAAGATGTGCTG+CAGCACATCTTGCACGTCG (((((((((((((((((((+))))))))))))))))))) | 63.8
CGACGTGCAAGATGTGCTG+CAGCACATGAAGCACGTCG ((((((((...((((((((+))))))))...)))))))) | 52.2
CGACGTGCAAGATGTGCTG+CAGCACATGATGCACGTCG (((((((((..((((((((+))))))))..))))))))) | 52.3
CGACGTGCAAGATGTGCTG+CAGCACATGCAGCACGTCG ((((((((...((((((((+))))))))...)))))))) | 52.3
CGACGTGCAAGATGTGCTG+CAGCACATGCGGCACGTCG ((((((((...((((((((+))))))))...)))))))) | 50.2

Substance | Tm [°C]
CGACGTGCAAGATGTGCTG+CAGCACATGCTGCACGTCG (((((((((..((((((((+))))))))..))))))))) | 51.1
CGACGTGCAAGATGTGCTG+CAGCACATGGAGCACGTCG ((((((((...((((((((+))))))))...)))))))) | 51.6
CGACGTGCAAGATGTGCTG+CAGCACATGTGGCACGTCG ((((((((.(.((((((((+)))))))).).)))))))) | 52.8
CGACGTGCAAGATGTGCTG+CAGCACATTCAGCACGTCG ((((((((...((((((((+))))))))...)))))))) | 50.7
CGACGTGCAAGATGTGCTG+CAGCACATTTAGCACGTCG ((((((((.(.((((((((+)))))))).).)))))))) | 51.1
CGACGTGCAAGATGTGCTG+CAGCACATTTGGCACGTCG ((((((((.(.((((((((+)))))))).).)))))))) | 52.5
CGACGTGCAATATGTGCTG+CAGCACATAAAGCACGTCG ((((((((..(((((((((+)))))))))..)))))))) | 52
CGACGTGCAATATGTGCTG+CAGCACATAACGCACGTCG ((((((((..(((((((((+)))))))))..)))))))) | 50.7
CGACGTGCAATATGTGCTG+CAGCACATAAGGCACGTCG ((((((((..(((((((((+)))))))))..)))))))) | 51.9
CGACGTGCAATATGTGCTG+CAGCACATACGGCACGTCG ((((((((..(((((((((+)))))))))..)))))))) | 49.4
CGACGTGCAATATGTGCTG+CAGCACATAGAGCACGTCG ((((((((..(((((((((+)))))))))..)))))))) | 52.7
CGACGTGCAATATGTGCTG+CAGCACATAGTGCACGTCG (((((((((.(((((((((+))))))))).))))))))) | 53.9
CGACGTGCAATATGTGCTG+CAGCACATATGGCACGTCG ((((((((.((((((((((+)))))))))).)))))))) | 55.6
CGACGTGCAATATGTGCTG+CAGCACATCACGCACGTCG ((((((((...((((((((+))))))))...)))))))) | 46.8
CGACGTGCAATATGTGCTG+CAGCACATCCGGCACGTCG ((((((((...((((((((+))))))))...)))))))) | 48.5
CGACGTGCAATATGTGCTG+CAGCACATCCTGCACGTCG (((((((((..((((((((+))))))))..))))))))) | 49.6
CGACGTGCAATATGTGCTG+CAGCACATCGTGCACGTCG (((((((((..((((((((+))))))))..))))))))) | 45.9
CGACGTGCAATATGTGCTG+CAGCACATCTAGCACGTCG ((((((((.(.((((((((+)))))))).).)))))))) | 49.2
